Patent US20080166345A1, “MEDICAMENTS COMPRISING GENE RECOMBINANT ANTIBODY AGAINST GANGLIOSIDE GD3” (KYOWA HAKKO KOGYO CO., LTD., priority 2001, published 2008)

Test: GD3 binding ELISA of transient expression (COS-7) culture supernatants
Conditions: COS-7 culture supernatant; FIG. 14, FIG. 17
Method: Each ganglioside (2 nmol) was dissolved in […] of ethanol solution containing 10 μg of dipalmitoylphosphatidylcholine (manufactured by SIGMA) and 5 μg of cholesterol (manufactured by SIGMA). In each well of a 96 well plate for ELISA (manufactured by Greiner), 20 μl of the solution (becomes 20 pmol/well) or 20 μl of the solution diluted with ethanol was respectively dispensed, followed by air-drying, and then PBS containing 1% BSA (hereinafter referred to as “1% BSA-PBS”) was added in 100 μl/well and allowed to react at room temperature for 1 hour to thereby block remaining active groups. After discarding 1% BSA-PBS, culture supernatants of transformants or diluted solutions of humanized antibodies were added in 50 μl/well and allowed to react at room temperature for 1 hour. […] After the reaction and subsequent washing with Tween-PBS, an ABTS substrate solution (a solution prepared by dissolving 0.55 g of 2,2′-azinobis(3-ethylbenzothiazoline-6-sulfonic acid) in 1 L of 0.1 M citrate buffer (pH 4.2) and adding 1 μl/ml hydrogen peroxide just before the use) was added in 50 μl/well for color development and the absorbance at 415 nm (hereinafter referred to as “OD415”) was measured. […]

B1: pT641HLCDR: anti-GD3 CDR-grafted antibody by transient expression; VH hKM641H (SEQ ID NO:9), VL hKM641L (SEQ ID NO:10) (antibody, V domains shown)
VH: EVQLVESGGDFVQPGGSLRVSCAASGFAFSHYAMSWVRQAPGKGLEWVAYISSGGSGTYYSDSVKGRFTISRDNSKNTLYLQMRSLRAEDSAVYFCTRVKLGTYYFDSWGQGTLLTVSS
VL: DIQMTQSPSSLSASVGDRVTITCSASQDISNYLNWYQQKPDKAPKLLIFYSSNLHSGVPSRFSGGGSGTDYTLTISSLQPEDIATYFCHQYSKLPWTFGQGTKVEIKR
relative activity (%) of binding to GD3 when the activity of anti-GD3 chimeric antibody is defined as 100: about 5%
